The chains are these.
B1: TPR t1 (parent)
chain: GACCAAUCUGCCCUCAGAGCUCGAGAACAUCUUCGGAUGCAGAGGAGGCAGGCUUCGGUGGCGCGAUAGCGCCAACGUCCUCAACCUCCAAUGCAUCCCACCACAUGAUGAUGCCUGAAGAGCCUUGGUUUUUUG

This series covers variants of B1. Nature of the series: polymerase ribozyme fitness, log enrichment relative to wild type (log ratio); higher = more active; in vitro selection for triplet polymerase activity. Summed up:
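Mutant libraries were PCR-built and transcribed for each subunit of a heterodimeric triplet polymerase ribozyme and selected for one round in triplicate at −7 °C, frozen, before gel excision of extended constructs and streptavidin-bead capture. Input and output libraries were Illumina-sequenced, keeping genotypes with ≥10 input reads and ≥1 read per output. Fitness is a logarithmic ratio of genotype to wild-type enrichment, in base 2, using inverse-variance-weighted replicate averages.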
For the variant G51U U67A A75U C88A U106A U112C, the “polymerase ribozyme fitness (log ratio)” value is -6.98.

With A50U C99U, the “polymerase ribozyme fitness (log ratio)” value is -5.15.

With A50U G63C U112A A118G, the “polymerase ribozyme fitness (log ratio)” value is -2.37.

Take C53A A66U C72U C123U: the “polymerase ribozyme fitness (log ratio)” value was found to be 0.234.

For the variant G51C C64U, the “polymerase ribozyme fitness (log ratio)” value was -3.9.

For the variant C53A C56A A84G U106C G113A, the “polymerase ribozyme fitness (log ratio)” value is -2.51.

For the variant G52A G71C, the “polymerase ribozyme fitness (log ratio)” value is -3.42.

As for C53G C73A A105C, the “polymerase ribozyme fitness (log ratio)” value is -3.2.

On to G51A C62U, for which the “polymerase ribozyme fitness (log ratio)” value is -2.43.

Take C53G G60U C104A C114U: the “polymerase ribozyme fitness (log ratio)” value is -5.11.

For G51C G93U, the “polymerase ribozyme fitness (log ratio)” value was -5.19.

Consider A50U C62U A91C, for which the “polymerase ribozyme fitness (log ratio)” value is -3.88.

Regarding G52U C64G C94U U106A A119G, the “polymerase ribozyme fitness (log ratio)” value was -6.74.

For G52A U106G A111C, the “polymerase ribozyme fitness (log ratio)” value was -2.25.

With G52U G61C G122A U125G, the “polymerase ribozyme fitness (log ratio)” value is -1.37.

As to C53U C89U, the “polymerase ribozyme fitness (log ratio)” value was -0.632.

Regarding C53G G63C A91C A118C, the “polymerase ribozyme fitness (log ratio)” value was -4.54.

As for G51U C62U C89U, the “polymerase ribozyme fitness (log ratio)” value was -5.

With G52A C82U A90C G117C, the “polymerase ribozyme fitness (log ratio)” value was -3.56.

In the case of A50G C99U, the “polymerase ribozyme fitness (log ratio)” value was -3.27.

As to A50U C88A G110A, the “polymerase ribozyme fitness (log ratio)” value is -3.66.

Consider G52U U59A G113C A119G, for which the “polymerase ribozyme fitness (log ratio)” value was -1.67.

For C53G C73U, the “polymerase ribozyme fitness (log ratio)” value was -0.493.

Turning to C53U C79G U81C, the “polymerase ribozyme fitness (log ratio)” value is -1.9.

In the case of A50G G120A, the “polymerase ribozyme fitness (log ratio)” value stood at 0.658.

In the case of G52U C80G, the “polymerase ribozyme fitness (log ratio)” value was -4.76.

For the variant G52U G58C G77A U87C U96G, the “polymerase ribozyme fitness (log ratio)” value is -1.61.

Consider G51C U129A, for which the “polymerase ribozyme fitness (log ratio)” value was -5.21.

On to A50G U55A G69A, for which the “polymerase ribozyme fitness (log ratio)” value is -2.85.

In the case of C53G G63A, the “polymerase ribozyme fitness (log ratio)” value was -2.58.

As for G51U U112A A118U, the “polymerase ribozyme fitness (log ratio)” value is -3.5.

G52U G60U: the “polymerase ribozyme fitness (log ratio)” value is -0.578.

Consider A50G A91C, for which the “polymerase ribozyme fitness (log ratio)” value was -1.05.

A50U G52C G77U U130C: the “polymerase ribozyme fitness (log ratio)” value was -3.17.

Take G51U A111C: the “polymerase ribozyme fitness (log ratio)” value was -4.77.

Turning to G51U A111U, the “polymerase ribozyme fitness (log ratio)” value is -6.02.

C53G G77A C102U G120C U125A: the “polymerase ribozyme fitness (log ratio)” value was -2.26.

Consider C53A U87C, for which the “polymerase ribozyme fitness (log ratio)” value was 0.506.

In the case of C53G C115U, the “polymerase ribozyme fitness (log ratio)” value is -1.56.

With G51C A91U G113C C124A, the “polymerase ribozyme fitness (log ratio)” value is -5.11.

With C53G G61U G77U C101G G120C, the “polymerase ribozyme fitness (log ratio)” value is -3.46.

Turning to C53G G60U G65U C104U, the “polymerase ribozyme fitness (log ratio)” value is -7.04.

As to G51U C70U, the “polymerase ribozyme fitness (log ratio)” value is -3.37.

For the variant G51U C70G, the “polymerase ribozyme fitness (log ratio)” value was -5.67.

In the case of C53A C94U C104U U112C, the “polymerase ribozyme fitness (log ratio)” value was determined as 1.78.

As to G52U C53G G60C C80A C94U, the “polymerase ribozyme fitness (log ratio)” value is -2.08.

Take C53U C73U: the “polymerase ribozyme fitness (log ratio)” value was -0.178.

In the case of C53U C73A, the “polymerase ribozyme fitness (log ratio)” value is -0.168.

Take C53A G61A U78G C79A U81G C85A: the “polymerase ribozyme fitness (log ratio)” value is -4.32.

Turning to C53U G57C U78C C114A C123U, the “polymerase ribozyme fitness (log ratio)” value is -3.58.

Turning to G52A C72G G128C U130G, the “polymerase ribozyme fitness (log ratio)” value was -1.87.

For the variant A50U C72U A74G, the “polymerase ribozyme fitness (log ratio)” value is -1.22.

Regarding A50U C80A G122A G127C U129C, the “polymerase ribozyme fitness (log ratio)” value is -5.15.

Turning to G52U C53A, the “polymerase ribozyme fitness (log ratio)” value is -1.2.

As to A50G U87G, the “polymerase ribozyme fitness (log ratio)” value came to 0.406.

Take C53A C72U C98U C123U: the “polymerase ribozyme fitness (log ratio)” value was -3.81.

Consider C53U C123U, for which the “polymerase ribozyme fitness (log ratio)” value is 1.1.

Turning to A50G G117A, the “polymerase ribozyme fitness (log ratio)” value is -1.18.

In the case of C53A C56G C62U C89A G120C U134G, the “polymerase ribozyme fitness (log ratio)” value was -0.681.

As for G51C C79A G117A U133G, the “polymerase ribozyme fitness (log ratio)” value is -5.7.

For the variant C53G G69U, the “polymerase ribozyme fitness (log ratio)” value is -0.127.

Regarding G52U U59C, the “polymerase ribozyme fitness (log ratio)” value was -0.547.

In the case of A50G U129G, the “polymerase ribozyme fitness (log ratio)” value was -0.967.

Take G52U C53U C62U C85U U129A: the “polymerase ribozyme fitness (log ratio)” value is -3.42.

As to G51U U55G, the “polymerase ribozyme fitness (log ratio)” value is -3.24.

As for A50G U55C C88U G107C U112G C123G, the “polymerase ribozyme fitness (log ratio)” value is -5.21.

For C53U C101G, the “polymerase ribozyme fitness (log ratio)” value was -1.42.

Turning to G51U C56A G69U U106C, the “polymerase ribozyme fitness (log ratio)” value was -1.79.

In the case of A50U G52A A84U G128U, the “polymerase ribozyme fitness (log ratio)” value was -5.16.

As to A50U G93A, the “polymerase ribozyme fitness (log ratio)” value was -1.21.

Turning to C53U C86G C115U, the “polymerase ribozyme fitness (log ratio)” value is -1.83.

Consider G51A C99U, for which the “polymerase ribozyme fitness (log ratio)” value was -7.64.

On to C53G A74G C115U, for which the “polymerase ribozyme fitness (log ratio)” value is -1.15.

As to G51U G113U, the “polymerase ribozyme fitness (log ratio)” value is -6.05.

Take G51A G65C C114G: the “polymerase ribozyme fitness (log ratio)” value was -6.09.

C53A U54A C80A C114A C124G U125A: the “polymerase ribozyme fitness (log ratio)” value was -6.7.

As for G52A C79A G110C, the “polymerase ribozyme fitness (log ratio)” value is -5.08.

With A50C G71U U130A, the “polymerase ribozyme fitness (log ratio)” value is -0.942.

Consider C53G C94A C115G G128C, for which the “polymerase ribozyme fitness (log ratio)” value was -4.56.

C53A C88U C101U C123U: the “polymerase ribozyme fitness (log ratio)” value was 0.64.

Consider C53A U87A A90G C97G U112A, for which the “polymerase ribozyme fitness (log ratio)” value was -3.25.

As to G51U G57A C76A G110U G122U, the “polymerase ribozyme fitness (log ratio)” value is -5.8.

For the variant C53A C79A G128A, the “polymerase ribozyme fitness (log ratio)” value is -3.36.

Values taken from the RNAGym collection of RNA variant scans (doi:10.1073/pnas.2313332121).
